Results published in patent US20240052042A1 (Novartis, published 2024).

T1: human Natriuretic Peptide Receptor 1 (hNPR1) (human, UniProt P16066 33-473, limits assumed)
T1 construct: pannings used NPR1-hFc; also called NPR1-hFc
T1 sequence: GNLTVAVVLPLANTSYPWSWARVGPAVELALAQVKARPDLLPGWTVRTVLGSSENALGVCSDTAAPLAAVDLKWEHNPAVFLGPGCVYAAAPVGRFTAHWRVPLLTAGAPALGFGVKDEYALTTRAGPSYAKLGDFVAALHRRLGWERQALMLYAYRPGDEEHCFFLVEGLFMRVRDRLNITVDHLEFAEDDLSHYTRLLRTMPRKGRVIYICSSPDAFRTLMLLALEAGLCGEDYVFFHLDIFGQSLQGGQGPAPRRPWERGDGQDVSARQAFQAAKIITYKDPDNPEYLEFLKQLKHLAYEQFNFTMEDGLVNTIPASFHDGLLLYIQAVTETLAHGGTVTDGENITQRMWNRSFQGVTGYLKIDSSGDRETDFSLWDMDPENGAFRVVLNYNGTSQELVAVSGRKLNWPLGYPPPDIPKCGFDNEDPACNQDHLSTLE

T2: rat NPR1 (rNPR1) (rat, UniProt P18910 29-469, limits assumed)
T2 construct: Soluble antigen
T2 sequence: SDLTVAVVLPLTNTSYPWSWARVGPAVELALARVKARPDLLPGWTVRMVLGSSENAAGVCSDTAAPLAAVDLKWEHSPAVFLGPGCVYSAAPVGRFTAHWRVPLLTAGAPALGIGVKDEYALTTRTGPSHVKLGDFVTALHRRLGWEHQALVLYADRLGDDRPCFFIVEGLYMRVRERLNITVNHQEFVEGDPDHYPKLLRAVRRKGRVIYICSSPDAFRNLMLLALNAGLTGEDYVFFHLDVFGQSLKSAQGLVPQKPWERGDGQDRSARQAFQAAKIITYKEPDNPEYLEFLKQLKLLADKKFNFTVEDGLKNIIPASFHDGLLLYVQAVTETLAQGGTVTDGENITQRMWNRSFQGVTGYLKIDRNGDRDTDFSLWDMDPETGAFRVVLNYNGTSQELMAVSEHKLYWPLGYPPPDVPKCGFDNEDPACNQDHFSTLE

T3: human NPR3 (counter target) (human, UniProt P17342 27-481, limits assumed)
T3 construct: Pannings used hNPR3-hFc; also called hNPR3; hNPR3-hFc
T3 sequence (looked up): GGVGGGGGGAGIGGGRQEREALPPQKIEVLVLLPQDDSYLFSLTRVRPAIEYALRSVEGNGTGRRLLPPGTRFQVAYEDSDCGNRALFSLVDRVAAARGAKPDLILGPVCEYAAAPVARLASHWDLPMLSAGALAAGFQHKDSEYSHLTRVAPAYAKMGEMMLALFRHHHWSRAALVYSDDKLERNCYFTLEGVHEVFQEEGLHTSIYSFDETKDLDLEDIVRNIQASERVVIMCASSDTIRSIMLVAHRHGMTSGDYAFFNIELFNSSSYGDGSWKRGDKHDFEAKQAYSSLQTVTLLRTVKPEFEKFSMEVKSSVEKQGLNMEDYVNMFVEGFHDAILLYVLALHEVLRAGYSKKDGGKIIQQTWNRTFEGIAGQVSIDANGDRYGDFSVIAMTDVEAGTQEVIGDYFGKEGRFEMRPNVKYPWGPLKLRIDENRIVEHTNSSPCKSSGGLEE

T4: human NPR1 on CHO-K1 cells in the presence of ANP (human, UniProt P01160 124-151)
T4 construct: also called hNPR1 CHO K1 + 100 nM ANP
T4 sequence: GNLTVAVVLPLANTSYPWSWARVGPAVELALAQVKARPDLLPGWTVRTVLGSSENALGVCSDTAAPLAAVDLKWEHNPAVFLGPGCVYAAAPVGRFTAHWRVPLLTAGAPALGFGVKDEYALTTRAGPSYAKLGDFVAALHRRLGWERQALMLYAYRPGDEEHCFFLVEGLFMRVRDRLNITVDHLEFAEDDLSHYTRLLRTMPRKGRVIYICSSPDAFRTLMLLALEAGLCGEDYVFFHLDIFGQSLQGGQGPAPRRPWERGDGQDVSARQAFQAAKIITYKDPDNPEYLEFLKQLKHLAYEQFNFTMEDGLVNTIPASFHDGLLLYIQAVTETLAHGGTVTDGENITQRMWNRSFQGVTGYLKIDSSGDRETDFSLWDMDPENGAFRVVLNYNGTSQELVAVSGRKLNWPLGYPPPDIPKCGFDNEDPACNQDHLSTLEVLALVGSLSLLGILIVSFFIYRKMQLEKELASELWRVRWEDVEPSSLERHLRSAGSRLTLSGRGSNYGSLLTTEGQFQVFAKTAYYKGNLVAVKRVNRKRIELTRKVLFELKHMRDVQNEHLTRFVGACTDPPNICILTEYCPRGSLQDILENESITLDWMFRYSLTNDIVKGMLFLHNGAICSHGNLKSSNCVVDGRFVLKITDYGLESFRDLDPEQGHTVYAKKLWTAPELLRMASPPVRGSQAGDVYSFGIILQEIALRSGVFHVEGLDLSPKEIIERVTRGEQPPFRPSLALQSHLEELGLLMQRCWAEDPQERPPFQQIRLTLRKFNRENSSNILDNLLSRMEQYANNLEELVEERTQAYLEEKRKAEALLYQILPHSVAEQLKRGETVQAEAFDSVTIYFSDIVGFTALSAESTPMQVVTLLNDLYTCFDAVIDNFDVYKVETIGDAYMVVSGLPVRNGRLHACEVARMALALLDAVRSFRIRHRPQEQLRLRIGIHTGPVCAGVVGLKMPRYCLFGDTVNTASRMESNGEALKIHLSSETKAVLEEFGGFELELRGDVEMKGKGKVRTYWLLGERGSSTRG
T4 sequence (peptide): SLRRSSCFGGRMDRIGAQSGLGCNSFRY

T5: human NPR1 on CHO-K1 cells (human, UniProt P16066 33-1061)
T5 construct: also called hNPR1 CHO K1; human NPR1 expressing CHO-K1 cells
T5 sequence: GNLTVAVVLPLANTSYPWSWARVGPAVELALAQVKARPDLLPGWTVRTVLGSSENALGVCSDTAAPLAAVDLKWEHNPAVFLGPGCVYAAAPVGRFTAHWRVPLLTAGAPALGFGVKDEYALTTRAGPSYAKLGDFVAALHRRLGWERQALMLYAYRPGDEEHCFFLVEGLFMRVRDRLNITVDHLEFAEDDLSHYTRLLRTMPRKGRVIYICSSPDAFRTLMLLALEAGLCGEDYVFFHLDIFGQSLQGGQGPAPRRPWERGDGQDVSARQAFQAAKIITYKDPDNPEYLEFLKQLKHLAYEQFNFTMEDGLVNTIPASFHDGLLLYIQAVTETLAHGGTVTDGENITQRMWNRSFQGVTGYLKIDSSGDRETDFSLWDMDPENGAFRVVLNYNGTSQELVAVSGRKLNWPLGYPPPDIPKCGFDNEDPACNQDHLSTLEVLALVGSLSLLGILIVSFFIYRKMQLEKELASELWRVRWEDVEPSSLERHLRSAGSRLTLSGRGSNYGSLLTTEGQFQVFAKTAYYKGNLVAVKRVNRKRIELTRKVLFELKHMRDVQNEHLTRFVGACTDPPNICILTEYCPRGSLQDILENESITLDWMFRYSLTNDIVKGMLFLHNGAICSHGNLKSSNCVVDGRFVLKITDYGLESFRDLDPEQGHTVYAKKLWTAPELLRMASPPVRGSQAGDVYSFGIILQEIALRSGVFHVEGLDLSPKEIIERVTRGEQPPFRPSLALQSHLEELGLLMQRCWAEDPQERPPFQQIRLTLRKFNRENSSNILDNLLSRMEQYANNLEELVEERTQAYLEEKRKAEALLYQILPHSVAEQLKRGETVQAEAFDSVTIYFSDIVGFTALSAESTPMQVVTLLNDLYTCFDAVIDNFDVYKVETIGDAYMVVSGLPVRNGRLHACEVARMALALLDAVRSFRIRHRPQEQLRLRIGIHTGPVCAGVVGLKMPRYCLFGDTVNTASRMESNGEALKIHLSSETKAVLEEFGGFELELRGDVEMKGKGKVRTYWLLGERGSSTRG


Tests used:
[1] = biological target: W74R hNPR1 mutant in the presence of ANP (human) (UniProt P01160); test: ELISA, 1 µM IgG
[2] = biological target: constitutively active human NPR1 mutant (W74R) (human) (UniProt P16066); test: ELISA, 1 µM IgG
[3] = biological target: T1, human Natriuretic Peptide Receptor 1 …; test: ELISA, 1 µM IgG; design: unit not given here
rat NPR1 (rNPR1) = biological target: T2, rat NPR1 (rNPR1); test: ELISA, 1 µM IgG; design: unit not given here
[4] = biological target: T3, human NPR3 (counter target); test: ELISA, 1 µM IgG; design: unit not given here
[5] = biological target: T4, human NPR1 on CHO-K1 cells in the …; test: flow cytometry, hNPR1 CHO-K1 cells, IgG
[6] = biological target: T5, human NPR1 on CHO-K1 cells; test: flow cytometry, hNPR1 CHO-K1 cells, IgG
[7] = biological target: constitutively active human NPR1 mutant (W74R) (human) (UniProt P16066); test: ELISA, IgG titrated on coated antigen, fluorescence [Cont.]

ELISA binding at 1 µM IgG [1]	ELISA binding at 1 µM IgG [2]	ELISA binding at 1 µM IgG [3]	ELISA binding at 1 µM IgG (rat NPR1 (rNPR1))	ELISA binding at 1 µM IgG [4]	flow cytometry S/BG at 1 µM IgG [5]	flow cytometry S/BG at 1 µM IgG [6]	EC50 (read off the curve) [7]	Binder
86	83	91	3	6	18 S/BG	26 S/BG	5 nM	YY06 (IgG format) (antibody, V domains shown, also called YY06_LALA) VH: EVQLLESGGGLVQPGGSLRLSCAASGFTFSSYAISWVRQAPGKGLEWVSAISGSGGSTYYAESVKGRFTISRDNSKNTLYLQMNSLRAEDTAVYYCARPYLGDRRSYGFDHWGQGTLVTVSS VL: QSALTQPASVSGSPGQSITISCTGTSSDVGSYNLVSWYQQHPGKAPKLMIYEGSKRPSGVSNRFSGSKSGNTASLTISGLQAEDEADYYCSSYGFHIVVVVFGGGTKLTVLG
20	53	68	3	6	44 S/BG	8 S/BG	2 nM	YY07 (IgG format) (antibody, V domains shown, also called YY07_LALA) VH: EVQLVQSGAEVKKPGESLKISCKGSGYSFTSYWISWVRQMPGKGLEWMGIIYPGTSYTRYSPSFQGQVTISADKSISTAYLQWSSLKASDTAMYYCARGSLPGLLGFDHWGQGTLVTVSS VL: QSVLTQPPSVSGAPGQRVTISCTGSSSNIGAGYDVHWYQQLPGTAPKLLIYGNSNRPNGVPDRFSGSKSGTSASLAITGLQAEDEADYYCQSYDSPTSSSVFGGGTKLTVLG
